{"source": "patent US20150307628", "proteins": {"B1": {"name": "hAY4a scFv-Fc heavy chain with CH3A of mutant EW-RVT (S-S) (Y349C/K360E/K409W) (protein)", "chain": "TCPPCPAPELLGGPSVFLFPPKPKDTLMISRTPEVTCVVVDVSHEDPEVKFNWYVDGVEVHNAKTKPREEQYNSTYRVVSVLTVLHQDWLNGKEYKCKVSNKALPAPIEKTISKAKGQPREPQVCTLPPSRDELTENQVSLTCLVKGFYPSDIAVEWESNGQPENNYKTTPPVLDSDGSFFLYSWLTVDKSRWQQGNVFSCSVMHEALHNHYTQKSLSLSPGK"}, "B2": {"name": "dummy-Fc heavy chain constant region with CH3B of mutant EW-RVT (S-S) (Q347R/S354C/D399V/F405T) (protein)", "chain": "B1 chain with Q123R, C125Y, S130C, E136K, D175V, F181T, W185K"}, "B3": {"name": "hAY4a scFv-Fc heavy chain with CH3A of mutant EEW-RVT (Q347E/K360E/K409W) (protein)", "chain": "B1 chain with Q123E, C125Y"}, "B4": {"name": "dummy-Fc heavy chain constant region with CH3B of mutant EEW-RVT (Q347R/D399V/F405T) (protein)", "chain": "B1 chain with Q123R, C125Y, E136K, D175V, F181T, W185K"}, "B5": {"name": "dummy-Fc heavy chain constant region with CH3B of mutant SW-WVT (E357W/D399V/F405T) (protein)", "chain": "B1 chain with C125Y, E133W, E136K, D175V, F181T, W185K"}, "B6": {"name": "hAY4a scFv-Fc heavy chain with CH3A of mutant SW-WVT (S-S) (Y349S/S354C/K409W) (protein)", "chain": "B1 chain with C125S, S130C, E136K"}, "B7": {"name": "dummy-Fc heavy chain constant region with CH3B of mutant SW-WVT (S-S) (Y349C/E357W/D399V/F405T) (protein)", "chain": "B1 chain with E133W, E136K, D175V, F181T, W185K"}, "B8": {"name": "dummy-Fc heavy chain constant region with CH3B of mutant EW-RVT (Q347R/D399V/F405T) (protein)", "chain": "B1 chain with Q123R, C125Y, E136K, D175V, F181T, W185K"}}, "key": {"[1]": {"experiment": "co-expression in HEK293F, protein A purification, non-reducing SDS-PAGE, band density (ImageJ); mean ± S.E.M."}, "[2]": {"molecular_target": "T1, dummy-Fc heavy chain constant region with CH3B of mutant EW-RVT (S-S) (Q347R/S354C/D399V/F405T)", "T1 chain": "B1 chain with Q123R, C125Y, S130C, E136K, D175V, F181T, W185K", "experiment": "co-expression in HEK293F, protein A purification, non-reducing SDS-PAGE, band density (ImageJ); mean ± S.E.M."}, "[3]": {"molecular_target": "T2, dummy-Fc heavy chain constant region with CH3B of mutant EEW-RVT (Q347R/D399V/F405T)", "T2 chain": "B1 chain with Q123R, C125Y, E136K, D175V, F181T, W185K", "experiment": "repeated expression and purification, SDS-PAGE band density (ImageJ)"}, "[4]": {"molecular_target": "T2, dummy-Fc heavy chain constant region …", "experiment": "co-expression in HEK293F, protein A purification, non-reducing SDS-PAGE, band density (ImageJ); mean ± S.E.M."}, "[5]": {"molecular_target": "T3, dummy-Fc heavy chain constant region with CH3B of mutant SW-WVT (S-S) (Y349C/E357W/D399V/F405T)", "T3 chain": "B1 chain with E133W, E136K, D175V, F181T, W185K", "experiment": "co-expression in HEK293F, protein A purification, non-reducing SDS-PAGE, band density (ImageJ); mean ± S.E.M."}}, "note": "Positions count from the first letter of the chain named. In names and notes the source's numbering stands."}
{"protein": "B1", "values": [{"measurement": "Heterodimer yields, AA Homodimer (CH3A:CH3A) (scFv-Fc)2", "setting": "[1]", "value": 0.6, "unit": "%"}, {"measurement": "Heterodimer yields, AB Heterodimer (CH3A:CH3B) (scFv-Fc)(Fc)", "setting": "[2]", "value": 94.2, "unit": "%"}]}
{"protein": "B2", "values": [{"measurement": "Heterodimer yields, BB Homodimer (CH3B:CH3B) (Fc)2", "setting": "[1]", "value": 2.2, "unit": "%"}]}
{"protein": "B3", "values": [{"measurement": "yield of formation of the heterodimer", "setting": "[3]", "value": "about 90 to 95%"}, {"measurement": "Heterodimer yields, AB Heterodimer (CH3A:CH3B) (scFv-Fc)(Fc)", "setting": "[4]", "value": 90.9, "unit": "%"}]}
{"protein": "B4", "values": [{"measurement": "Heterodimer yields, BB Homodimer (CH3B:CH3B) (Fc)2", "setting": "[1]", "value": 6.3, "unit": "%"}]}
{"protein": "B5", "values": [{"measurement": "Heterodimer yields, BB Homodimer (CH3B:CH3B) (Fc)2", "setting": "[1]", "value": 1.7, "unit": "%"}]}
{"protein": "B6", "values": [{"measurement": "Heterodimer yields, AB Heterodimer (CH3A:CH3B) (scFv-Fc)(Fc)", "setting": "[5]", "value": 98.6, "unit": "%"}]}
{"protein": "B7", "values": [{"measurement": "Heterodimer yields, BB Homodimer (CH3B:CH3B) (Fc)2", "setting": "[1]", "value": 0.8, "unit": "%"}]}
{"protein": "B8", "values": [{"measurement": "Heterodimer yields, BB Homodimer (CH3B:CH3B) (Fc)2", "setting": "[1]", "value": 1.6, "unit": "%"}]}
